The results in this text go back to paper PMC9719863 (Molecular Metabolism, 2022).

*1 amine or outer side, *2 acyl side, *3 side chain or, on linkers, in order; H or OH if unused. Where no end group is shown, it is not given here. Side-chain parts run from the residue outwards. The star is where a group is joined. C18 diacid = O=C(O)CCCCCCCCCCCCCCCCC(=O)*; γGlu = O=C(O)[C@H](CCC(=O)[*:2])N[*:1]; Palmitoyl = CCCCCCCCCCCCCCCC(=O)*; AEEA = NCCOCCOCC(=O)O

Assay [1] addresses T1, hGIPR (Homo sapiens, UniProt P48546).
T1 sequence (P48546 22-466): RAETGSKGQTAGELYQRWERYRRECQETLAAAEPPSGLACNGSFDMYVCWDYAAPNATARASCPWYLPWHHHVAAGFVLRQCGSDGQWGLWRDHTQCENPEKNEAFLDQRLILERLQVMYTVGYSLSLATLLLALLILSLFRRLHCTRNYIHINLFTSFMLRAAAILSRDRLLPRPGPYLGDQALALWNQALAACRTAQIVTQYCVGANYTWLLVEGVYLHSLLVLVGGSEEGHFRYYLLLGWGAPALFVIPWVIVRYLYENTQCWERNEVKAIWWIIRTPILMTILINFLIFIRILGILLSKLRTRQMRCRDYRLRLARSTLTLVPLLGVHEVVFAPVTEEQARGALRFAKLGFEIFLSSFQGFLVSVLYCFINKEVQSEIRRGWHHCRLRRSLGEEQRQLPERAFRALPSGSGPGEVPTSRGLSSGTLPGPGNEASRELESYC
Kind of assay: cAMP CRE-luciferase assay in BHK cells expressing GIPR. The class given is cell-based. As to conditions: agonist mode; for Agonism at the hGIPR (cAMP production by peptide alone): without native ligand.

Assay [2] has as its target T2, mGIPR (Mus musculus, UniProt Q0P543).
T2 sequence (Q0P543 19-460): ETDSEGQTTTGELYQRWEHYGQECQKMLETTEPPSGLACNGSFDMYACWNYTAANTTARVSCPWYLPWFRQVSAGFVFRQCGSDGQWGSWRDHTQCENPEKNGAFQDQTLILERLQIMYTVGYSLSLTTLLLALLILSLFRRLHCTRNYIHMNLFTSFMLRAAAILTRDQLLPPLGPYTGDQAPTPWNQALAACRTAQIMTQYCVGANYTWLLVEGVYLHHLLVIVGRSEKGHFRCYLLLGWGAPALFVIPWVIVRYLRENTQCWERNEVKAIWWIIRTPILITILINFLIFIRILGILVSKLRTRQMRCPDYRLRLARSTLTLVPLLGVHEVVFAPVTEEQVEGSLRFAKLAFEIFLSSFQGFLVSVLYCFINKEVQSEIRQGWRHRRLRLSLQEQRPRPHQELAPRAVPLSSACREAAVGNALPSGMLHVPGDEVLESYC
The assay is described as above. The class given is cell-based. As to conditions: agonist mode, without native ligand.

In assay [3] the target is T3, human GIP receptor (human, UniProt P48546 22-466).
T3 sequence: T1 sequence (P48546 22-466)
Kind of assay: cell-based or functional assay.

Assay [4] deals with T4, mouse GIP receptor (mouse, UniProt Q0P543 19-460).
T4 sequence: T2 sequence (Q0P543 19-460)
Nature of the assay: cell-based or functional assay.

For assay [5], the target named is T3, human GIP receptor. Kind of assay: radioligand binding.
The target of assay [6] is T4, mouse GIP receptor. Kind of assay: radioligand binding.

Turning to “TFISDYSIALDKIRQQEFVNWLLAQKG [Peptide 3, [L14, R18, E21] hGIP(5–31)]”, the “Agonism at the hGIPR (cAMP production by peptide alone)” value (from here on “Agonism at the hGIPR”) in assay [1] is given as “partial agonism”. Besides, the “Agonism at the mGIPR (cAMP production by peptide alone)” value (shortened to “Agonism at the mGIPR”) in assay [2] is “no significant agonism”.
For orientation: EC50 means the concentration giving half of the maximal effect. In assay [1] (cAMP EC50, hGIPR, native ligand, Table 1), `CC[C@H](C)[C@H](NC(=O)[C@H](CO)NC(=O)[C@H](Cc1ccc(O)cc1)NC(=O)[C@H](CC(=O)O)NC(=O)[C@H](CO)NC(=O)[C@@H](NC(=O)[C@H](Cc1ccccc1)NC(=O)[C@@H](NC(=O)CNC(=O)[C@H](CCC(=O)O)NC(=O)[C@H](C)NC(=O)[C@@H](N)Cc1ccc(O)cc1)[C@@H](C)O)[C@@H](C)CC)C(=O)N[C@@H](C)C(=O)N[C@@H](CCSC)C(=O)N[C@@H](CC(=O)O)C(=O)N[C@@H](CCCCN)C(=O)N[C@H](C(=O)N[C@@H](CCCNC(=N)N)C(=O)N[C@@H](CCC(N)=O)C(=O)N[C@@H](CCC(N)=O)C(=O)N[C@@H](CC(=O)O)C(=O)N[C@@H](Cc1ccccc1)C(=O)N[C@H](C(=O)N[C@@H](CC(N)=O)C(=O)N[C@@H](Cc1c[nH]c2ccccc12)C(=O)N[C@@H](CC(C)C)C(=O)N[C@@H](CC(C)C)C(=O)N[C@@H](C)C(=O)N[C@@H](CCC(N)=O)C(=O)N[C@@H](CCCNC(=N)N)C(=O)NCC(=O)N[C@@H](CCCCN)C(=O)N[C@@H](CCCCN)C(=O)N[C@@H](CO)C(=O)N[C@@H](CC(=O)O)C(=O)N[C@@H](Cc1c[nH]c2ccccc12)C(=O)N[C@@H](CCCCN)C(=O)N[C@@H](Cc1c[nH]cn1)C(=O)N[C@@H](CC(N)=O)C(=O)N[C@H](C(=O)N[C@H](C(=O)N[C@@H](CCC(N)=O)C(=O)O)[C@@H](C)O)[C@@H](C)CC)C(C)C)[C@@H](C)CC` [mGIP, reference compound] gave an EC50 of 0.01 nM.
As to “EGTFISDYSIALDKIRQQEFVNWLLAQK-NH2 [Peptide 2, [L14, R18, E21] hGIP(3–30)]”, the “Agonism at the hGIPR” value in assay [1] is recorded as “partial agonism”. For the same molecule, the “Agonism at the mGIPR” value in assay [2] is listed as “no significant agonism”.
In the case of `CCCCCCCCCCCCCCCC(=O)N[C@@H](CCC(=O)NCCCC[C@H](NC(=O)[C@H](Cc1ccc(O)cc1)NC(=O)[C@H](CC(=O)O)NC(=O)[C@H](CO)NC(=O)[C@@H](NC(=O)[C@H](Cc1ccccc1)NC(=O)[C@@H](NC(=O)CNC(=O)[C@@H](N)CCC(=O)O)[C@@H](C)O)[C@@H](C)CC)C(=O)N[C@H](C(=O)N[C@@H](C)C(=O)N[C@@H](CC(C)C)C(=O)N[C@@H](CC(=O)O)C(=O)N[C@@H](CCCCN)C(=O)N[C@H](C(=O)N[C@@H](CCCNC(=N)N)C(=O)N[C@@H](CCC(N)=O)C(=O)N[C@@H](CCC(N)=O)C(=O)N[C@@H](CCC(=O)O)C(=O)N[C@@H](Cc1ccccc1)C(=O)N[C@H](C(=O)N[C@@H](CC(N)=O)C(=O)N[C@@H](Cc1c[nH]c2ccccc12)C(=O)N[C@@H](CC(C)C)C(=O)N[C@@H](CC(C)C)C(=O)N[C@@H](C)C(=O)N[C@@H](CCC(N)=O)C(=O)N[C@@H](CCCCN)C(N)=O)C(C)C)[C@@H](C)CC)[C@@H](C)CC)C(=O)O` [Peptide 6, [L14, R18, E21] hGIP(3–30)-K11 (γE-C16)], in assay [1], the “Agonism at the hGIPR” value is “negligible cAMP production as agonists”. The “Agonism at the mGIPR” value in assay [2] was “negligible cAMP production as agonists”.
With “FISDYSIALDKIRQQEFVNWLLAQKG [Peptide 4, [L14, R18, E21] hGIP(6–31)]”, the “Agonism at the hGIPR” value in assay [1] is given as “partial agonism”. The “Agonism at the mGIPR” value in assay [2] is given as “no significant agonism”.
What is called IC50 is the concentration that gives 50% inhibition. Lower therefore signals higher potency. As to Ac-TFISDYK(C18 diacid)IALDKIRQQEFVNWLLAQKG [[Nα-Ac, L14, R18, E21] hGIP(5-31)-K11 (-C18-OH)], the “maximal % inhibition of GIP-induced cAMP in BHK cells expressing hGIPR” value in assay [3] was 100%. The “maximal % inhibition of GIP-induced cAMP in BHK cells expressing mGIPR” value in assay [4] stood at 100%. Besides, the IC50 in assay [5] is 0.9 nM; in assay [6] it was 5.4 nM.

B1: [L14, R18, E21] hGIP(3-30)-K11 (γE-C16) (peptide)
peptide: EGTFISDYK([γGlu-Palmitoyl])IALDKIRQQEFVNWLLAQK-NH2
modifications: N-terminus assumed
SMILES: CCCCCCCCCCCCCCCC(=O)N[C@@H](CCC(=O)NCCCC[C@H](NC(=O)[C@H](Cc1ccc(O)cc1)NC(=O)[C@H](CC(=O)O)NC(=O)[C@H](CO)NC(=O)[C@@H](NC(=O)[C@H](Cc1ccccc1)NC(=O)[C@@H](NC(=O)CNC(=O)[C@@H](N)CCC(=O)O)[C@@H](C)O)[C@@H](C)CC)C(=O)N[C@H](C(=O)N[C@@H](C)C(=O)N[C@@H](CC(C)C)C(=O)N[C@@H](CC(=O)O)C(=O)N[C@@H](CCCCN)C(=O)N[C@H](C(=O)N[C@@H](CCCNC(=N)N)C(=O)N[C@@H](CCC(N)=O)C(=O)N[C@@H](CCC(N)=O)C(=O)N[C@@H](CCC(=O)O)C(=O)N[C@@H](Cc1ccccc1)C(=O)N[C@H](C(=O)N[C@@H](CC(N)=O)C(=O)N[C@@H](Cc1c[nH]c2ccccc12)C(=O)N[C@@H](CC(C)C)C(=O)N[C@@H](CC(C)C)C(=O)N[C@@H](C)C(=O)N[C@@H](CCC(N)=O)C(=O)N[C@@H](CCCCN)C(N)=O)C(C)C)[C@@H](C)CC)[C@@H](C)CC)C(=O)O
Take B1: the “maximal % inhibition of GIP-induced cAMP in BHK cells expressing hGIPR” value in assay [3] was 100%. The “maximal % inhibition of GIP-induced cAMP in BHK cells expressing mGIPR” value in assay [4] was determined as 97%. In addition, the IC50 is 0.36 nM in assay [5] and 2.1 nM in assay [6].
For the molecule EGTFISDYSIAMDKIHQQDFVNWLLAQK-NH2 [hGIP(3-30) amide], the “maximal % inhibition of GIP-induced cAMP in BHK cells expressing hGIPR” value in assay [3] was 81%. In assay [4], the “maximal % inhibition of GIP-induced cAMP in BHK cells expressing mGIPR” value was determined as 73%. The same molecule showed an IC50 in assay [5] of 1.55 nM.
For Ac-TFISDYK([AEEA-AEEA-C18 diacid])IALDKIRQQEFVNWLLAQKG [[Nα-Ac, L14, R18, E21] hGIP(5-31)-K11(OEG2-C18-OH)], in assay [3], the “maximal % inhibition of GIP-induced cAMP in BHK cells expressing hGIPR” value turned out to be 100%. Moreover, the “maximal % inhibition of GIP-induced cAMP in BHK cells expressing mGIPR” value in assay [4] stood at 100%. Also, the IC50 worked out at 2.49 nM in assay [5] and 8.7 nM in assay [6].
In the case of FISDYSIALDKIRQQEFVNWLLAQKG [[L14, R18, E21] hGIP(6-31)], the “maximal % inhibition of GIP-induced cAMP in BHK cells expressing hGIPR” value in assay [3] came out at 83%. The “maximal % inhibition of GIP-induced cAMP in BHK cells expressing mGIPR” value in assay [4] amounted to 91%. The figures for the IC50 in assay [5] and in assay [6] were 6.45 nM and 37.1 nM, respectively.
In the case of Ac-TFISDYK([γGlu-Palmitoyl])IALDKIRQQEFVNWLLAQKG [[Nα-Ac, L14, R18, E21] hGIP(5-31)-K11 (γE-C16)], in assay [3], the “maximal % inhibition of GIP-induced cAMP in BHK cells expressing hGIPR” value worked out at 100%. Besides, in assay [4], the “maximal % inhibition of GIP-induced cAMP in BHK cells expressing mGIPR” value was 100%.
With TFISDYSIALDKIRQQEFVNWLLAQKG [[L14, R18, E21] hGIP(5-31)], the “maximal % inhibition of GIP-induced cAMP in BHK cells expressing hGIPR” value in assay [3] is 81%. In addition, in assay [4], the “maximal % inhibition of GIP-induced cAMP in BHK cells expressing mGIPR” value amounted to 93%. The IC50 in assay [5] came out at 1.8 nM; in assay [6], 18.7 nM.
Regarding Ac-TFISDK([γGlu-Palmitoyl])SIALDKIRQQEFVNWLLAQKG [[Nα-Ac, L14, R18, E21] hGIP(5-31)-K10 (γE-C16)], in assay [3], the “maximal % inhibition of GIP-induced cAMP in BHK cells expressing hGIPR” value was 100%. Besides, the “maximal % inhibition of GIP-induced cAMP in BHK cells expressing mGIPR” value in assay [4] came to 100%. Further, the IC50 in assay [5] amounted to 0.21 nM; in assay [6], 1 nM.
